Reference: publication PMC5025653

Biological target: C-terminal region of IbOr (IbOr-C), recombinant (sweetpotato (Ipomoea batatas))
Experiment: native gel or EMSA; 10% native PAGE gel, silver-stained; recombinant IbOr and truncated fragments

stoichiometry N: 3
Substance: C-terminal region of IbOr (IbOr-C), recombinant (domain or fragment)
